Measurements as given in patent US20240109974A1 (SHANDONG SIMCERE BIOPHARMACEUTICAL, published 2024).

T1: human TNFR2 on the surface of CHO-TNFR2 cells (human, UniProt P20333 23-461)
T1 construct: whole, on cells
T1 sequence (looked up): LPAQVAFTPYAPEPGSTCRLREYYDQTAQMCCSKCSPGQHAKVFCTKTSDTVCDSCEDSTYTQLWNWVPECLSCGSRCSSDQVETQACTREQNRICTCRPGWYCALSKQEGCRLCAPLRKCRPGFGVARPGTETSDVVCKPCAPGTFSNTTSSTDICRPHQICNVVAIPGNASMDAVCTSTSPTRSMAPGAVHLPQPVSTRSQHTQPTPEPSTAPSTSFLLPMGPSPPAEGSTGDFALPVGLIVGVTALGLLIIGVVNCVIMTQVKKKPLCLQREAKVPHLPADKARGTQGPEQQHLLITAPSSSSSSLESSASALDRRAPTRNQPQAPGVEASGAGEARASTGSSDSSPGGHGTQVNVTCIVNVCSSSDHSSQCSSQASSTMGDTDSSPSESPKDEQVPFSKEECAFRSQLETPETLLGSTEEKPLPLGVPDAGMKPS


Target: T1, human TNFR2 on the surface of CHO-TNFR2 …
Test: flow cytometry on CHO-TNFR2 cells
Description: The transfected full-length plasmid of human TNFR2 was purchased from Sino Biological (Cat #HG10417-UT, NCBI Ref Seq: NM_001066.2). The experiment was conducted at a cell density within 80%. The cell medium was discarded; the cells were rinsed with PBS, and digested with 1 ml trypsin for 2 minutes; the digestion was stopped with a Ham's F12 complete medium containing 10% FBS, and then a cell suspension was made. The cell suspension was counted, and then an appropriate amount of cell suspension was centrifuged at 350×g; the supernatant was discarded; a corresponding volume of blocking solution (10% FBS+PBS) at a density of 1×10⁷ cells/ml was added to resuspend the cells, and the mixture was incubated at 4° C. for 30 minutes. After the incubation, the mixture was centrifuged at 350×g to remove the supernatant, and the cells were resuspended in a staining buffer (2% FBS+PBS) to a density of 2×10⁶ cells/ml, and spread onto a 96-well plate, with 50 μl of cell suspension added to each well for later use. The antibody was diluted with PBS for 10-fold gradient dilution from the highest concentration of 20 μg/m (twice the concentration); the diluted antibody was added to the well containing 50 μl of cell suspension, and placed on a microplate shaker for shaking at 500 rpm for 1 minute, so that the antibody was fully mixed with the cells; the mixture was incubated at 4° C. for 1 h. After the incubation, the cells were washed twice with the staining buffer, with 100 μl per well, and centrifuged at 350-g for 5 minutes, and the supernatant was discarded. The PE goat anti-Human IgG Fc antibody (ebioscience, Cat #12-4998-82) was diluted 250-fold with the staining buffer, with a volume of 100 μl per well added to the washed cell wells; the mixture was mixed evenly, and stained at 4° C. for 30 minutes. After the staining, similarly, the cells were washed twice with the staining buffer; finally, the cells were resuspended in 200 μl of staining buffer; signals were detected by a flow cytometer (Thermo Attune NxT). The stronger the signal, the stronger the binding ability of an antibody to TNFR2. The binding curve of an antibody was drawn with antibody concentration as the abscissa and corresponding mean fluorescence intensity (MFI) fold as the ordinate, and fitted with four parameters (GraphPad Prism9) to calculate the EC50 value.

EC50 [ng/mL] | Binder
0.04 | 224-WT (antibody, V domains shown, Human-murine chimeric wild-type molecule; also called human-murine chimeric antibody WT of #224) VH: EVQLQESGPEIVKPGASVKLSCTASGFNNKDIYMHWVKQRPEQGLEWIGRIDPATGNTKHDPKFQDKATLSSDTSSNTAYLQFSSLTSEDTAVYYCAHSPYGDFGAMDYWGQGTTVTVSS VL: DIQMTQSPAIMSASLGERVTMTCTASSSVSSNYLHWYQQKPGSSPKLWIYSTSNLPSGVPARFSGSGSGTSYSLTISSMEAEDAATYYCHQYHRSPWTFGGGTKLEIK
0.026 | 219-WT (antibody, V domains shown, Human-murine chimeric wild-type molecule) VH: EVQLQESGAELVRPGASVKLSCKASGYSFTNYWMNWVKQRPGQGLEWIGMIHPSDTETRLNQNFKDKATLTVDKSSSTSYMQLSSPTSEDSAVYYCARGEGLGAARSVSMDYWGQGTTVTVSS VL: DILMTQSPSSLSASLGDRVTISCRASQDISNYLNWYQQKPDGTVKVLIYYTAILHSGVPSRFSGSGSGTDYSLTISNLEQEDIATYFCQQGNTLPWTFGGGTKLEIK
0.018 | 219-Hu4 (antibody, V domains shown, also called VH6 + VL5) VH: QVQLVQSGAEVKKPGSSVKVSCKASGYSFTNYWMNWVKQAPGQGLEWIGMIHPSDTETRLNQNFKDKATLTVDKSTSTAYMELSSLRSEDTAVYYCARGEGLGAARSVSMDYWGQGTLVTVSS VL: DIQMTQSPSSLSASVGDRVTITCRASQDISNYLNWYQQKPDGTVKLLIYYTAILHSGVPSRFSGSGSGTDYSLTISSLQPEDFATYFCQQGNTLPWTFGQGTKVEIK
0.018 | 219-Hu5 (antibody, V domains shown, also called VH7 + VL5) VH: QVQLVQSGAEVKKPGSSVKVSCKASGYSFTNYWMNWVRQAPGQGLEWMGMIHPSDTETRLNQNFKDRVTITVDKSTSTAYMELSSLRSEDTAVYYCARGEGLGAARSVSMDYWGQGTLVTVSS VL: DIQMTQSPSSLSASVGDRVTITCRASQDISNYLNWYQQKPDGTVKLLIYYTAILHSGVPSRFSGSGSGTDYSLTISSLQPEDFATYFCQQGNTLPWTFGQGTKVEIK

More lines, now with the values behind:

Binder | EC50 [ng/mL]
001-WT (antibody, V domains shown, Human-murine chimeric wild-type molecule; also called human-murine chimeric antibody WT of #001) VH: EVQLQESGGGLVQPGGSLNLSCAASGFAFSTYDLSWVRQTPEKRLEWVAYINNGGISTYYSDTVKGRFTISRDNAKNTLYLQMSSLKSEDTAMYYCVRGPFYGSANYFDYWGQGTTVTVSS VL: EIVMTQSPASLSLSVGETVTITCRTSESIYSNLPWYQQKQGKSPQLLVYDATKLAEGVPSRFSGSESGTQYSLKINSLQSEDFGTYYCQHFWVTPWTFGGGTKLEIK | 0.035
001-Hu5 (antibody, V domains shown, Humanized form of #001; also called VH1 + VL4) VH: EVQLVESGGGLVQPGGSLRLSCAASGFAFSTYDLSWVRQAPGKGLEWVAYINNGGISTYYSDTVKGRFTISRDNAKNTLYLQMNSLRAEDTAVYYCVRGPFYGSANYFDYWGQGTLVTVSS VL: DIQMTQSPSSLSASVGDRVTITCRTSESIYSNLPWYQQKPGKSPKLLVYDATKLAEGVPSRFSGSGSGTDYTLTISSLQPEDFATYYCQHFWVTPWTFGQGTKVEIK | 0.029
001-Hu3 (antibody, V domains shown, Humanized form of #001; also called VH1 + VL3) VH: EVQLVESGGGLVQPGGSLRLSCAASGFAFSTYDLSWVRQAPGKGLEWVAYINNGGISTYYSDTVKGRFTISRDNAKNTLYLQMNSLRAEDTAVYYCVRGPFYGSANYFDYWGQGTLVTVSS VL: DIQMTQSPSSLSASVGDRVTITCRTSESIYSNLPWYQQKPGKAPKLLIYDATKLAEGVPSRFSGSGSGTDYTLTISSLQPEDFATYYCQHFWVTPWTFGQGTKVEIK | 0.035
001-Hu1 (antibody, V domains shown, Humanized form of #001; also called VH1 + VL1) VH: EVQLVESGGGLVQPGGSLRLSCAASGFAFSTYDLSWVRQAPGKGLEWVAYINNGGISTYYSDTVKGRFTISRDNAKNTLYLQMNSLRAEDTAVYYCVRGPFYGSANYFDYWGQGTLVTVSS VL: DIQMTQSPSSLSASVGDRVTITCRTSESIYSNLPWYQQKPGKAPKLLLYDATKLAEGVPSRFSGSGSGTDYTLTISSLQPEDFATYYCQHFWVTPWTFGQGTKVEIK | 0.045
001-Hu2 (antibody, V domains shown, Humanized form of #001; also called VH2 + VL2) VH: EVQLVESGGGLVQPGGSLRLSCAASGFAFSTYDLSWVRQAPGKGLEWVAYINNGGISTYYSDTVKGRFTISRDNAKNSLYLQMNSLRAEDTAVYYCVRGPFYGSANYFDYWGQGTLVTVSS VL: DIQMTQSPSSLSASVGDRVTITCRTSESIYSNLPWYQQKPGKSPKLLIYDATKLAEGVPSRFSGSGSGTDFTLTISSLQPEDFATYYCQHFWVTPWTFGQGTKVEIK | 0.073
001-Hu4 (antibody, V domains shown, Humanized form of #001; also called VH2 + VL4) VH: EVQLVESGGGLVQPGGSLRLSCAASGFAFSTYDLSWVRQAPGKGLEWVAYINNGGISTYYSDTVKGRFTISRDNAKNSLYLQMNSLRAEDTAVYYCVRGPFYGSANYFDYWGQGTLVTVSS VL: DIQMTQSPSSLSASVGDRVTITCRTSESIYSNLPWYQQKPGKSPKLLVYDATKLAEGVPSRFSGSGSGTDYTLTISSLQPEDFATYYCQHFWVTPWTFGQGTKVEIK | 0.027
219-Hu3 (antibody, V domains shown, also called VH5 + VL5) VH: QVQLVQSGAEVKKPGSSVKVSCKASGYSFTNYWMNWVRQAPGQGLEWMGMIHPSDTETRLNQNFKDRVTITADKSTSTAYMELSSLRSEDTAVYYCARGEGLGAARSVSMDYWGQGTLVTVSS VL: DIQMTQSPSSLSASVGDRVTITCRASQDISNYLNWYQQKPDGTVKLLIYYTAILHSGVPSRFSGSGSGTDYSLTISSLQPEDFATYFCQQGNTLPWTFGQGTKVEIK | 0.018
219-Hu2 (antibody, V domains shown, also called VH4 + VL5) VH: QVQLVQSGAEVKKPGSSVKVSCKASGYSFTNYWMNWVRQAPGQGLEWMGMIHPSDTETRLNQNFKDKATITADKSTSTAYMELSSLRSEDTAVYYCARGEGLGAARSVSMDYWGQGTLVTVSS VL: DIQMTQSPSSLSASVGDRVTITCRASQDISNYLNWYQQKPDGTVKLLIYYTAILHSGVPSRFSGSGSGTDYSLTISSLQPEDFATYFCQQGNTLPWTFGQGTKVEIK | 0.027
219-Hu1 (antibody, V domains shown, also called VH3 + VL5) VH: QVQLVQSGAEVKKPGASVKVSCKASGYSFTNYWMNWVRQAPGQRLEWMGMIHPSDTETRLNQNFKDRVTITRDTSASTAYMELSSLRSEDTAVYYCARGEGLGAARSVSMDYWGQGTLVTVSS VL: DIQMTQSPSSLSASVGDRVTITCRASQDISNYLNWYQQKPDGTVKLLIYYTAILHSGVPSRFSGSGSGTDYSLTISSLQPEDFATYFCQQGNTLPWTFGQGTKVEIK | 0.026
